Results published in paper doi:10.1101/343046 (bioRxiv, 2018).

T1: GST-KBP (Kinesin-Binding Protein) (human, UniProt Q96EK5 1-621)
T1 sequence (looked up): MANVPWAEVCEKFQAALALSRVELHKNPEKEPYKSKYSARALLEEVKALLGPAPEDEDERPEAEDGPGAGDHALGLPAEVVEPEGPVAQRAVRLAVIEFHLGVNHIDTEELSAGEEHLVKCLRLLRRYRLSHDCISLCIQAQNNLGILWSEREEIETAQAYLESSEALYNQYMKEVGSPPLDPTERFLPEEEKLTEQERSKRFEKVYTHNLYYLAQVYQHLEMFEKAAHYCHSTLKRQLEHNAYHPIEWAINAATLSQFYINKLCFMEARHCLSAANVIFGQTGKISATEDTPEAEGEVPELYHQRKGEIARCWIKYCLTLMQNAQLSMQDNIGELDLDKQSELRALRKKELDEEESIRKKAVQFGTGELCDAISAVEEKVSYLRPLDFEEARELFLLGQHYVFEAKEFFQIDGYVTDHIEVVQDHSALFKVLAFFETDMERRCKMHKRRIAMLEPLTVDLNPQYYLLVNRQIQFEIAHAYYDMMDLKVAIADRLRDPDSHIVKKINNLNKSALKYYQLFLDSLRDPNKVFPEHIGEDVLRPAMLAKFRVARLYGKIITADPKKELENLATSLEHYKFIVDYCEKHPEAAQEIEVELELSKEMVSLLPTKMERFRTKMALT

B1: KIF18A-N480-GFP-His6 (domain or fragment, human, UniProt Q8NI77 1-480, looked up)
chain: MSVTEEDLCHHMKVVVRVRPENTKEKAAGFHKVVHVVDKHILVFDPKQEEVSFFHGKKTTNQNVIKKQNKDLKFVFDAVFDETSTQSEVFEHTTKPILRSFLNGYNCTVLAYGATGAGKTHTMLGSADEPGVMYLTMLHLYKCMDEIKEEKICSTAVSYLEVYNEQIRDLLVNSGPLAVREDTQKGVVVHGLTLHQPKSSEEILHLLDNGNKNRTQHPTDMNATSSRSHAVFQIYLRQQDKTASINQNVRIAKMSLIDLAGSERASTSGAKGTRFVEGTNINRSLLALGNVINALADSKRKNQHIPYRNSKLTRLLKDSLGGNCQTIMIAAVSPSSVFYDDTYNTLKYANRAKDIKSSLKSNVLNVNNHITQYVKICNEQKAEILLLKEKLKAYEEQKAFTNENDQAKLMISNPQEKEIERFQEILNCLFQNREEIRQEYLKLEMLLKENELKSFYQQQCHKQIEMMCSEDKVEKATGKR
B2: His6-KIF15-N420 (domain or fragment, human, UniProt Q9NS87 1-420, looked up)
chain: MAPGCKTELRSVTNGQSNQPSNEGDAIKVFVRIRPPAERSGSADGEQNLCLSVLSSTSLRLHSNPEPKTFTFDHVADVDTTQESVFATVAKSIVESCMSGYNGTIFAYGQTGSGKTFTMMGPSESDNFSHNLRGVIPRSFEYLFSLIDREKEKAGAGKSFLCKCSFIEIYNEQIYDLLDSASAGLYLREHIKKGVFVVGAVEQVVTSAAEAYQVLSGGWRNRRVASTSMNRESSRSHAVFTITIESMEKSNEIVNIRTSLLNLVDLAGSERQKDTHAEGMRLKEAGNINRSLSCLGQVITALVDVGNGKQRHVCYRDSKLTFLLRDSLGGNAKTAIIANVHPGSRCFGETLSTLNFAQRAKLIKNKAVVNEDTQGNVSQLQAEVKRLKEQLAELASGQTPPESFLTRDKKKTNYMEYFQE

Target: T1, GST-KBP (Kinesin-Binding Protein)
Experiment: pull-down

binding result	Binder
binds	B1
binds	B2
